Target: T1, LMP1重组蛋白抗原 (SEQ ID NO.2, 213-408aa of LMP1, expressed in E. coli) (Epstein-Barr virus, UniProt P29362 187-404)
T1 construct: Recombinant fragment purified with NTA buffers (a tag from the expression vector is likely but is not described); also called LMP1蛋白
T1 chain: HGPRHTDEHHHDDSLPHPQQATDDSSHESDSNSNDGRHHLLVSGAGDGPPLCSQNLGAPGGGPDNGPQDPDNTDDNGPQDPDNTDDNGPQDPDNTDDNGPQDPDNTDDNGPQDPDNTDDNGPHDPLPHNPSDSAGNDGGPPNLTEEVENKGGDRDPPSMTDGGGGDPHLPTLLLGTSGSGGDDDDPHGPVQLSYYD
Assay: non-competitive ELISA by Beatty's method, power curve model

B1: 抗LMP1单克隆抗体 7B63B10 (secreted by hybridoma cell line 7B63B10, CCTCC NO: C2019160) (antibody, IgG2b, V domains shown)
VH: EVKLVESGGGFVQPGGSRKLSCAASGFTFSSFGMHWVRQAPEKGLEWVAYISSGSSTIYYADTVKGRFTISRDNPKNTLFLQMTSLRSEDTAMYYCARDWVLDYWGQGTTLTVSS
VL: DIVITQTPLSLPVSLGDQASVSCRSSQSLVHSNGNTYLHWYLQKPGQSPKLLIYKVSNRFSGVPDRFSGSGSGTDFTLNISRVEAEDLGVYFCSQSTHVPFTFGGGTKLEIKR
notes: Mouse (Balb/c) hybridoma antibody, Ig type IgG2b; also called LMP1 7B63B10; 本发明单克隆抗体
Question: How did the Ka turn out when B1 was run?
Answer: The Ka was 9e+09 M⁻¹.
